Columns and labels:
[1] = target: T1, human GABRA2 (SEQ ID NO: 21) (human, UniProt P47869 29-251); test: Biacore SPR, antibody immobilized on CM5 chip, GABRA2 as analyte, single-dose kinetics
T1 construct: The Biacore method says only 'Diluted GABRA2'; I took it to be the same antigen; also called GABRA2 protein; human GABRA2 antigen
T1 sequence: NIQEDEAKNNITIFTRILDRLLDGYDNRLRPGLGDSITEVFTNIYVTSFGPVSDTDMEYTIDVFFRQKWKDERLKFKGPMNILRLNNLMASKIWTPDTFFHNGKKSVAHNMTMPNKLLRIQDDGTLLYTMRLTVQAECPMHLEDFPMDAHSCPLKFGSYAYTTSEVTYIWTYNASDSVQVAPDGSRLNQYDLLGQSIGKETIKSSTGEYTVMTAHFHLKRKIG
Description: (§1) Biacore analysis—Antibody was immobilized onto a CM5 sensor chip (Cat No. BR-1005-30) under 25° C. while HBS-EP was used as the running buffer. The sensor chip surface of flow cells 1 and 2 were activated by freshly mixed 50 mmol/1 N-Hydroxysuccinimide (NHS) and 200 mmol/I 1-ethyl-3-(3-dimethylaminopropyl) carbodiimide hydrochloride (EDC) for 200s ([…]). Afterwards, the antibody diluted in 10 mml/l NaAC (pH 4.5) was injected into flow cell 2 to achieve conjugation of 300 Response Unit respectively, while flow cell 1 was set as blank. After the amine coupling reaction, the remaining active coupling sites on chip surface were blocked with 200s injection of 1 mol/l ethanolamine hydrochloride. […] Diluted GABRA2 was injected over the surface as association phase, followed by injecting running buffer as dissociation phase. Data was processed using the Biacore 8K Evaluation software version 1.1. Flow cell 1 and blank injection of buffer in each cycle were used as double reference for Response Unit subtraction.

[2] = target: T1, human GABRA2 (SEQ ID NO: 21); test: Biacore SPR, antibody immobilized on CM5 chip, GABRA2 as analyte, single-cycle kinetics
Description: as §1

Kd [1]: 0.251 nM
koff [1]: 1.58e-05 s⁻¹
kon [1]: 62800 M⁻¹ s⁻¹
Kd [2]: 0.388 nM
koff [2]: 5.42e-05 s⁻¹
kon [2]: 140000 M⁻¹ s⁻¹
B1: antibody U6882DH130_13, purified from hybridoma 10C5B9 (antibody, V domains shown)
VH: EVQLQQSGAELVKPGASVKLSCTASGFNIKDTYMYWVKQRPEQGLEWIGRIDPANGNTKYDPKFQGKATITADTSSNTAYLQLSSLTSEDTAVYYCASNYYGSFDYWGQGTTLTVSS
VL: DIQMTQTTSSLSASLGDRVTISCRASQDISNYLNWYQQKPDGTVKLLIYYTSRLHSGVPSRFSGSGSGTDYSLTISNLEQEDIATYFCQQGNTLPPTFGGGTKLEIK
notes: also called U6882DH130_13 Antibody; Antibody from clone10C5B9
